In the Human Domainome abundance scans (Beltran et al. 2025) one finds abundance fitness data, which are given here for 59 variants.

± gives the uncertainty stated by the source.

First the molecules themselves.
B1: SWI/SNF complex subunit SMARCC2, residues 599 to 641; numbered along this chain, Q8TAQ2 (parent)
chain: REWTEQETLLLLEALEMYKDDWNKVSEHVGSRTQDECILHFLR

In the data set the parent is B1. Nature of the data set: abundance fitness (aPCA) (normalised: wild type 0, dead -1); higher = more abundant; growth selection in yeast, the domain comes from the species named. The conditions noted are these: Homo sapiens.
Regarding REWTEQETLLLLEALEMYKDDWNKVSEHVGSRTQDECPLHFLR [I38P], the abundance fitness is -0.367 ± 0.14. For REWTEQETLLLLEALEMYKDDWNKVSEHVGSRTQDECLLHFLR [I38L], the abundance fitness is 0.12 ± 0.068. For REWTQQETLLLLEALEMYKDDWNKVSEHVGSRTQDECILHFLR [E5Q], the abundance fitness stood at 0.164 ± 0.24. REWTSQETLLLLEALEMYKDDWNKVSEHVGSRTQDECILHFLR [E5S]: the abundance fitness is -0.506 ± 0.078. Turning to REWTTQETLLLLEALEMYKDDWNKVSEHVGSRTQDECILHFLR [E5T], the abundance fitness came out at 0.004 ± 0.092. Regarding REWTCQETLLLLEALEMYKDDWNKVSEHVGSRTQDECILHFLR [E5C], the abundance fitness is -0.104 ± 0.074.

As to REWTPQETLLLLEALEMYKDDWNKVSEHVGSRTQDECILHFLR [E5P], the abundance fitness was -0.39 ± 0.079. Regarding REWTEQETLLLLEALEMYKDDWNKVSEHVKSRTQDECILHFLR [G30K], the abundance fitness is -0.011 ± 0.095. In the case of REWTEQETLLLLEALEMYKDDWNKVSEHVNSRTQDECILHFLR [G30N] it was -0.164 ± 0.1; in that of REWTEQETLLLLEALEMYKDDWNKVSEHVGSRTQDEFILHFLR [C37F], -0.361 ± 0.31. As for REWTEQETLLLLEALEMYKDDWNKVSEHVGSRTQDEEILHFLR [C37E], the abundance fitness was -0.598 ± 0.44. In the case of REWTEQETLLLLEALEMYKDDWNKVSEHVGSRTQDELILHFLR [C37L] it was -0.844 ± 0.14; in that of REWTEQETLFLLEALEMYKDDWNKVSEHVGSRTQDECILHFLR [L10F], -0.27 ± 0.13. For REWTEQETLDLLEALEMYKDDWNKVSEHVGSRTQDECILHFLR [L10D], the abundance fitness is -0.224 ± 0.19.

For the variant REWTEQETLHLLEALEMYKDDWNKVSEHVGSRTQDECILHFLR [L10H], the abundance fitness was -0.115 ± 0.086. Under REWTEQETLLLLEALEMYKDDWNKVSEHVGLRTQDECILHFLR [S31L] stands -0.49 ± 0.18; under REWTEQETLLLLEALEMYKDDWNKVSEHVGYRTQDECILHFLR [S31Y], 0.015 ± 0.14; under REWTEQETLLLLEALEMYKDDWNKVSEHVGMRTQDECILHFLR [S31M], 0.042 ± 0.1. As for REWTEQETLLLLEALEMYKDDWNKVSEHVGDRTQDECILHFLR [S31D], the abundance fitness is 0.06 ± 0.091.

As for REWTEQETLLLLEALEMYKDDWNKVSEHVGSRTQDECILHFTR [L42T], the abundance fitness was found to be 0.519 ± 0.087. As to REWTEQETLLNLEALEMYKDDWNKVSEHVGSRTQDECILHFLR [L11N], the abundance fitness was -0.575 ± 0.09. Turning to REWTEQETLLLLEALEMYKDDWNKVSRHVGSRTQDECILHFLR [E27R], the abundance fitness is -0.022 ± 0.066.

On to REWTEQETLLLLEALEMYKPDWNKVSEHVGSRTQDECILHFLR [D20P], for which the abundance fitness is 0.055 ± 0.088. As for REWTEQETLLLLEALEMYKWDWNKVSEHVGSRTQDECILHFLR [D20W], the abundance fitness is -0.237 ± 0.076. With VEWTEQETLLLLEALEMYKDDWNKVSEHVGSRTQDECILHFLR [R1V], the abundance fitness came out at 0.316 ± 0.067. With LEWTEQETLLLLEALEMYKDDWNKVSEHVGSRTQDECILHFLR [R1L], the abundance fitness stood at 0.094 ± 0.083. As to CEWTEQETLLLLEALEMYKDDWNKVSEHVGSRTQDECILHFLR [R1C], the abundance fitness is 0.225 ± 0.075.

Take REWTEQETLLLLEALEMRKDDWNKVSEHVGSRTQDECILHFLR [Y18R]: the abundance fitness was -0.626 ± 0.084. For the variant REWTEQETLLLLEALEMWKDDWNKVSEHVGSRTQDECILHFLR [Y18W], the abundance fitness was -0.093 ± 0.1. Under REWTEQETLLLLEALEMNKDDWNKVSEHVGSRTQDECILHFLR [Y18N] stands -0.003 ± 0.12. In the case of REWTEQETLLLLEALEMYKDDWNKVSEHVGSRTQDECILHNLR [F41N] it was 0.581 ± 0.11.

On to REWTEQETLLLLEALEMYKDDWNKVSEHVGSRTQDECILHHLR [F41H], for which the abundance fitness worked out at 0.442 ± 0.077. For REWTEQETLLLLEALEMYKDDWNKVSEHVGSRTQDECILHSLR [F41S], the abundance fitness came out at 0.324 ± 0.066. Under REWTEQETLLLLEALEMYKDDWNKVSEHVGSRTQDECILHGLR [F41G] stands 0.417 ± 0.082; under REWTEQVTLLLLEALEMYKDDWNKVSEHVGSRTQDECILHFLR [E7V], -0.815 ± 0.24; under REWTEQATLLLLEALEMYKDDWNKVSEHVGSRTQDECILHFLR [E7A], -0.448 ± 0.19. As to REWTEQYTLLLLEALEMYKDDWNKVSEHVGSRTQDECILHFLR [E7Y], the abundance fitness was -1.26 ± 0.23. For REWTEQRTLLLLEALEMYKDDWNKVSEHVGSRTQDECILHFLR [E7R], the abundance fitness is -0.887 ± 0.092. On to REWTEQETLLLLEALEMYMDDWNKVSEHVGSRTQDECILHFLR [K19M], for which the abundance fitness was -0.332 ± 0.38. As for REWTEQETLLLLEALEMYRDDWNKVSEHVGSRTQDECILHFLR [K19R], the abundance fitness was -0.115 ± 0.069. Consider REWTEVETLLLLEALEMYKDDWNKVSEHVGSRTQDECILHFLR [Q6V], for which the abundance fitness was -0.117 ± 0.095. For REWTEYETLLLLEALEMYKDDWNKVSEHVGSRTQDECILHFLR [Q6Y], the abundance fitness was -0.206 ± 0.31. As for REWTETETLLLLEALEMYKDDWNKVSEHVGSRTQDECILHFLR [Q6T], the abundance fitness is -0.191 ± 0.11.

For the variant REWTEQETLLLLWALEMYKDDWNKVSEHVGSRTQDECILHFLR [E13W], the abundance fitness was -0.697 ± 0.19. As for REWTEQETLLLLIALEMYKDDWNKVSEHVGSRTQDECILHFLR [E13I], the abundance fitness is -0.742 ± 0.25. Turning to REQTEQETLLLLEALEMYKDDWNKVSEHVGSRTQDECILHFLR [W3Q], the abundance fitness was -0.247 ± 0.17. REETEQETLLLLEALEMYKDDWNKVSEHVGSRTQDECILHFLR [W3E]: the abundance fitness is -0.431 ± 0.16. In the case of REYTEQETLLLLEALEMYKDDWNKVSEHVGSRTQDECILHFLR [W3Y], the abundance fitness is -0.354 ± 0.23. Turning to REWTEQEKLLLLEALEMYKDDWNKVSEHVGSRTQDECILHFLR [T8K], the abundance fitness turned out to be 0.075 ± 0.087. In the case of REWTEQEHLLLLEALEMYKDDWNKVSEHVGSRTQDECILHFLR [T8H] it was 0.291 ± 0.1; in that of REWTEQETLLLLEALEMYKDDWNKVSEHVGSRTQDECILIFLR [H40I], -0.431 ± 0.1; in that of REWTEQETLLLLEALEMYKDDWNKVSEHVGSRTQDECILAFLR [H40A], -0.081 ± 0.096. As for REWTEQETLLLLEALEMYKDDWNKVSEHVGSRTQDECILRFLR [H40R], the abundance fitness was found to be 0.096 ± 0.075.

In the case of REWTEQETLLLLEALEMYKDDWNKVSEHVGSRTQDECILGFLR [H40G], the abundance fitness was -0.178 ± 0.11. As to REWTEQETLLLLEALEMYKDDWNKVSEHVGSRTQDECILWFLR [H40W], the abundance fitness was -0.139 ± 0.23. Take REWTEQETLLLLEALEMYKDDWNKVSEHVGSRTVDECILHFLR [Q34V]: the abundance fitness is -0.018 ± 0.07. For the variant REWTEQETLLLLEALEMYKDDWNKVSEHVGSRTYDECILHFLR [Q34Y], the abundance fitness was found to be 0.03 ± 0.085. Turning to REWTEQETLLLLEALEMYKDDWNKVSEHVGSRTTDECILHFLR [Q34T], the abundance fitness is 0.185 ± 0.077.

With REWTEQETLLLLEALEMYKDSWNKVSEHVGSRTQDECILHFLR [D21S], the abundance fitness was -0.057 ± 0.064.
